Reference: patent publication US20240352087A1

How the values were obtained:
Test in all cases: HLA-binding assay
B*35:01 = target: B*35:01
A*29:02 = target: A*29:02
B*40:01 = target: B*40:01
B*27:05 = target: B*27:05

| Substance | IC50 (B*35:01) | IC50 (B*27:05) | also measured |
| --- | --- | --- | --- |
| E5 55-63 | 0.0014 µM | – | – |
| E5 65-73 | – | – | IC50 (A*29:02): 0.444 µM |
| E6 52-61 | 0.051 µM | – | – |
| E6 81-90 | – | – | IC50 (B*40:01): 0.00054 µM |
| E6 83-90 | – | 0.012 µM | – |
| E6 137-144 | – | 0.013 µM | – |
